# Results as given in US20230140293A1.
# How the values were obtained:
# Assay in all cases: cell-based or functional assay
# [1] = target: CH0505.w4.3 Env, Env-pseudotyped virus produced in 293T cells (HIV-1)
# [2] = target: CH0505TF Env, Env-pseudotyped virus produced in 293S GnTI- cells (Man5-enriched) (HIV-1)
# [3] = target: CH0505TF Env, Env-pseudotyped virus produced in 293T cells (HIV-1)
# [4] = target: CH0505TF.G458Y Env, Env-pseudotyped virus produced in 293S GnTI- cells (Man5-enriched) (HIV-1)
# [5] = target: CH0505TF.G458Y Env, Env-pseudotyped virus produced in 293T cells (HIV-1)
# [6] = target: CH0505TF.gly3.197 Env, Env-pseudotyped virus produced in 293S GnTI- cells (Man5-enriched) (HIV-1)
# [7] = target: CH0505TF.gly3.197 Env, Env-pseudotyped virus produced in 293T cells (HIV-1)
# [8] = target: CH0505TF.gly3.276 Env, Env-pseudotyped virus produced in 293S GnTI- cells (Man5-enriched) (HIV-1)
# [9] = target: CH0505TF.gly3.276 Env, Env-pseudotyped virus produced in 293T cells (HIV-1)
# [10] = target: CH0505TF.gly3.461 Env, Env-pseudotyped virus produced in 293S GnTI- cells (Man5-enriched) (HIV-1)
# [11] = target: CH0505TF.gly3.461 Env, Env-pseudotyped virus produced in 293T cells (HIV-1)
# [12] = target: CH0505TF.gly4 Env, Env-pseudotyped virus produced in 293S GnTI- cells (Man5-enriched) (HIV-1)
# [13] = target: CH0505TF.gly4 Env, Env-pseudotyped virus produced in 293T cells (HIV-1)
# [14] = target: HIV-1 426c.DM (N460D/N463D) Env on Env-pseudotyped virus produced in 293T cells (HIV-1)
# [15] = target: HIV-1 426c.DM (N460D/N463D) Env on Env-pseudotyped virus produced in 293s/GnTI-/- cells (Man5-enrichment) (HIV-1)
# [16] = target: HIV-1 426c.SM (N276D) Env on Env-pseudotyped virus produced in 293T cells (HIV-1)
# [17] = target: HIV-1 426c.SM (N276D) Env on Env-pseudotyped virus produced in 293s/GnTI-/- cells (Man5-enrichment) (HIV-1)
# [18] = target: HIV-1 426c.TM (N276D/N460D/N463D) Env on Env-pseudotyped virus produced in 293T cells (HIV-1)
# [19] = target: HIV-1 426c.TM (N276D/N460D/N463D) Env on Env-pseudotyped virus produced in 293s/GnTI-/- cells (Man5-enrichment) (HIV-1)
# [20] = target: HIV-1 Env 426c, Env-pseudotyped virus produced in 293S GnTI- cells (Man5-enriched) (HIV-1 clade C strain 426c)
# [21] = target: HIV-1 Env 426c, Env-pseudotyped virus produced in 293T cells (HIV-1 clade C strain 426c)
# [22] = target: HIV-1 Env 426c.DM (N460D.N463D), Env-pseudotyped virus produced in 293S GnTI- cells (Man5-enriched) (HIV-1 clade C strain 426c)
# [23] = target: HIV-1 Env 426c.DM (N460D.N463D), Env-pseudotyped virus produced in 293T cells (HIV-1 clade C strain 426c)
# [24] = target: HIV-1 Env 426c.SM (N276D), Env-pseudotyped virus produced in 293S GnTI- cells (Man5-enriched) (HIV-1 clade C strain 426c)
# [25] = target: HIV-1 Env 426c.SM (N276D), Env-pseudotyped virus produced in 293T cells (HIV-1 clade C strain 426c)
# [26] = target: HIV-1 Env 426c.TM (N276D.N460D.N463D), Env-pseudotyped virus produced in 293S GnTI- cells (Man5-enriched) (HIV-1 clade C strain 426c)
# [27] = target: HIV-1 Env 426c.TM (N276D.N460D.N463D), Env-pseudotyped virus produced in 293T cells (HIV-1 clade C strain 426c)
# [28] = target: HIV-1 Env 426c.TM4 (S278R.G471S.N460D.N463D), Env-pseudotyped virus produced in 293S GnTI- cells (Man5-enriched) (HIV-1 clade C strain 426c)
# [29] = target: HIV-1 Env 426c.TM4 (S278R.G471S.N460D.N463D), Env-pseudotyped virus produced in 293T cells (HIV-1 clade C strain 426c)
# [30] = target: HIV-1 clade C strain 426c Env on Env-pseudotyped virus produced in 293T cells (HIV-1)
# [31] = target: HIV-1 clade C strain 426c Env on Env-pseudotyped virus produced in 293s/GnTI-/- cells (Man5-enrichment) (HIV-1)
Substance,IC50 (µg/ml) in TZM-bl [1] [µg/mL],IC50 (µg/ml) in TZM-bl [2] [µg/mL],IC50 (µg/ml) in TZM-bl [3] [µg/mL],IC50 (µg/ml) in TZM-bl [4] [µg/mL],IC50 (µg/ml) in TZM-bl [5] [µg/mL],IC50 (µg/ml) in TZM-bl [6] [µg/mL],IC50 (µg/ml) in TZM-bl [7] [µg/mL],IC50 (µg/ml) in TZM-bl [8] [µg/mL],IC50 (µg/ml) in TZM-bl [9] [µg/mL],IC50 (µg/ml) in TZM-bl [10] [µg/mL],IC50 (µg/ml) in TZM-bl [11] [µg/mL],IC50 (µg/ml) in TZM-bl [12] [µg/mL],IC50 (µg/ml) in TZM-bl [13] [µg/mL],ID50/IC50 in TZM-bl [14] [µg/mL],ID50/IC50 in TZM-bl [15] [µg/mL],ID50/IC50 in TZM-bl [16] [µg/mL],ID50/IC50 in TZM-bl [17] [µg/mL],ID50/IC50 in TZM-bl [18] [µg/mL],ID50/IC50 in TZM-bl [19] [µg/mL],IC50 (µg/ml) in TZM-bl [20] [µg/mL],other results
DH511.2_K3 (antibody),0.02,0.95,3.4,1.2,0.6,2.5,3.1,1.7,2.9,1.6,2.8,1.1,2.1,1.5,0.75,0.77,0.87,1.06,1.2,0.85,IC50 (µg/ml) in TZM-bl [21]: 0.8 µg/mL; IC50 (µg/ml) in TZM-bl [22]: 0.75 µg/mL; IC50 (µg/ml) in TZM-bl [23]: 1.5 µg/mL; IC50 (µg/ml) in TZM-bl [24]: 0.87 µg/mL; IC50 (µg/ml) in TZM-bl [25]: 0.77 µg/mL; IC50 (µg/ml) in TZM-bl [26]: 1.2 µg/mL; IC50 (µg/ml) in TZM-bl [27]: 1.06 µg/mL; IC50 (µg/ml) in TZM-bl [28]: 0.56 µg/mL; IC50 (µg/ml) in TZM-bl [29]: 0.56 µg/mL; ID50/IC50 in TZM-bl [30]: 0.8 µg/mL; ID50/IC50 in TZM-bl [31]: 0.85 µg/mL
HJ16 (antibody),> 25,> 25,> 25,> 25,> 25,> 25,> 25,> 25,> 25,> 25,> 25,> 25,> 25,> 25,> 25,> 25,> 25,> 25,> 25,> 25,IC50 (µg/ml) in TZM-bl [21]: > 25 µg/mL; IC50 (µg/ml) in TZM-bl [22]: > 25 µg/mL; IC50 (µg/ml) in TZM-bl [23]: > 25 µg/mL; IC50 (µg/ml) in TZM-bl [24]: > 25 µg/mL; IC50 (µg/ml) in TZM-bl [25]: > 25 µg/mL; IC50 (µg/ml) in TZM-bl [26]: > 25 µg/mL; IC50 (µg/ml) in TZM-bl [27]: > 25 µg/mL; IC50 (µg/ml) in TZM-bl [28]: > 25 µg/mL; IC50 (µg/ml) in TZM-bl [29]: > 25 µg/mL; ID50/IC50 in TZM-bl [30]: > 25 µg/mL; ID50/IC50 in TZM-bl [31]: > 25 µg/mL
2219 (antibody),> 25,> 25,> 25,> 25,> 25,> 25,> 25,> 25,> 25,> 25,> 25,> 25,> 25,> 25,> 25,> 25,> 25,> 25,> 25,> 25,IC50 (µg/ml) in TZM-bl [21]: > 25 µg/mL; IC50 (µg/ml) in TZM-bl [22]: > 25 µg/mL; IC50 (µg/ml) in TZM-bl [23]: > 25 µg/mL; IC50 (µg/ml) in TZM-bl [24]: > 25 µg/mL; IC50 (µg/ml) in TZM-bl [25]: > 25 µg/mL; IC50 (µg/ml) in TZM-bl [26]: > 25 µg/mL; IC50 (µg/ml) in TZM-bl [27]: > 25 µg/mL; IC50 (µg/ml) in TZM-bl [28]: > 25 µg/mL; IC50 (µg/ml) in TZM-bl [29]: > 25 µg/mL; ID50/IC50 in TZM-bl [30]: > 25 µg/mL; ID50/IC50 in TZM-bl [31]: > 25 µg/mL
PG16 (antibody),0.03,0.08,0.09,0.01,0.03,0.03,0.05,0.02,0.1,0.02,0.1,0.02,0.1,> 5,> 5,> 5,> 5,> 5,> 5,> 5,IC50 (µg/ml) in TZM-bl [21]: > 5 µg/mL; IC50 (µg/ml) in TZM-bl [22]: > 5 µg/mL; IC50 (µg/ml) in TZM-bl [23]: > 5 µg/mL; IC50 (µg/ml) in TZM-bl [24]: > 5 µg/mL; IC50 (µg/ml) in TZM-bl [25]: > 5 µg/mL; IC50 (µg/ml) in TZM-bl [26]: > 5 µg/mL; IC50 (µg/ml) in TZM-bl [27]: > 5 µg/mL; IC50 (µg/ml) in TZM-bl [28]: > 5 µg/mL; IC50 (µg/ml) in TZM-bl [29]: > 5 µg/mL; ID50/IC50 in TZM-bl [30]: > 5 µg/mL; ID50/IC50 in TZM-bl [31]: > 5 µg/mL
